These results are taken from PMC2191632 (The Journal of Experimental Medicine, 1994).

Where no end group is shown, it is not given here. Bounds are passed on as bounds.

What is called IC50 is the point on the concentration scale where inhibition reaches its midpoint. For orientation: Kd means the concentration at which binding is half-saturated. Read a low Kd as a tighter complex.

The target in one series is DRB1*0406 complex (Homo sapiens, UniProt P01903+P01911, A100R/A103E/A169T/F76Y/I96L/K127E/L162R/M171V/N62H/P40V/Q125Y/R42H/S133A/S149N/V209L/W38E). The class given is binding.
Series [1] concerns the target DRB1*0405 complex (HLA-DR4, DRA-DRB1*0405) (Homo sapiens, UniProt P01903+P01911, A100R/A169T/D86S/F76Y/I96L/K127E/L162R/M171V/N62H/P40V/Q125Y/R42H/S133A/S149N/S66Y/V115G/V209L/W38E). The format is binding.
The target of series [2] is HLA-DR4 (DRA-DRB1*0406 complex) (human (endogenous in KT13)). Description: radioligand binding.
The nature of series [3]: Solubility of polyalanine-based peptide. The format is physicochemical. The conditions noted are these: in words; lysine then inserted at NH2 terminus to increase solubility.
Series [4] addresses HLA-DR4 (DRA-DRB1*0405 complex) (human (endogenous in EBWa)). Description: radioligand binding.

For the molecule AALAAIASAA, the IC50 turned out to be 8.8 µM against DRB1*0406 complex and 11 µM in series [1]. On to K-Ins beta p1-18 (…) (peptide), for which, in series [2], the IC50 is > 500 µM. Turning to AAYAAVAVAA, the Solubility result in series [3] was “not soluble”. With AAFAAMASAA, the results for the IC50 (at DRB1*0406 complex; in series [1]) were 1.1 µM and 3.6 µM, respectively. In the same order, the values of AAYAALANAA are 5 µM and 1.4 µM. On the same counts, the results for KAAYAAVAVAA are 12.2 µM and 5.1 µM. AALAAIASAA had an IC50 in series [2] of 8.8 µM. On to SDPILYRPVAVALDTKGPE [PKM2p99-117 (…), unlabeled], for which the percent inhibition of 125I-0405BP3 binding at 20 uM stood at 71% in series [2] and 90% in series [4]. For KGIVEQCCTSI [K-Ins alpha p1-10 (…)], the IC50 in series [2] is > 500 µM. Regarding EGQLVSIHSPEEQDFLTKHA [CD23p195-214 (…)], the percent inhibition of 125I-0405BP3 binding at 20 uM is 63% in series [2] and 59% in series [4]. In the same order, the values of NELSGEAHKDALGKLY [irrelevant peptide (…), unlabeled] are 2% and 1%. With KSLYQLENYCN [K-Ins alpha p12-21 (…)], the IC50 in series [2] turned out to be 12 µM. For SPGTGAYYVLLN [0405BP2 (…)], the percent inhibition of 125I-0405BP3 binding at 20 uM was 85% in series [2] and 93% in series [4]. In series [2], KAAYAAVAVAA had a half-maximal inhibitory concentration (IC50) of 12.2 µM. Regarding VPIQRAVYQNVVVNN [0405BP1 (…), unlabeled], the percent inhibition of 125I-0405BP3 binding at 20 uM in series [2] came out at 70%; in series [4], 103%.

Consider AAKAAKAGAA, for which the IC50 in series [2] is > 500 µM. Still for that read-out and setting: the value for KKTSICSLYQLE [KK-Ins alpha p8-17 (…)] was 4.1 µM. The same measure, in the same setting: the value for KLVEALYLVCGERGFFYTPKT [K-Ins beta p11-30 (…)] was 14.5 µM; that for AAFAAMASAA was 1.1 µM; that for AAYAALANAA was 5 µM. In series [4], GSTVFDNLPAPE [… with 10th N to A] displayed a percent by which the substitution inhibited binding (against …) of 70%. Consider GSTVFDNLPNPEIDGDYYGW [0405BP3 (…), unlabeled], for which the percent inhibition of 125I-0405BP3 binding at 20 uM in series [2] is 96%. In addition, in series [4], the Kd was determined as 0.07 µM and the percent inhibition of 125I-0405BP3 binding at 20 uM was determined as 97%. As for GPKPLFRRMSSLVGPTQSFF [CD20p26-45 (…)], the percent inhibition of 125I-0405BP3 binding at 20 uM in series [2] stood at 96%; in series [4], 90%.
